First the molecules themselves.
B1: Ribosome assembly protein 4 (Saccharomyces cerevisiae), P25382 (parent)
chain: MSTLIPPPSKKQKKEAQLPREVAIIPKDLPNVSIKFQALDTGDNVGGALRVPGAISEKQLEELLNQLNGTSDDPVPYTFSCTIQGKKASDPVKTIDITDNLYSSLIKPGYNSTEDQITLLYTPRAVFKVKPVTRSSSAIAGHGSTILCSAFAPHTSSRMVTGAGDNTARIWDCDTQTPMHTLKGHYNWVLCVSWSPDGEVIATGSMDNTIRLWDPKSGQCLGDALRGHSKWITSLSWEPIHLVKPGSKPRLASSSKDGTIKIWDTVSRVCQYTMSGHTNSVSCVKWGGQGLLYSGSHDRTVRVWDINSQGRCINILKSHAHWVNHLSLSTDYALRIGAFDHTGKKPSTPEEAQKKALENYEKICKKNGNSEEMMVTASDDYTMFLWNPLKSTKPIARMTGHQKLVNHVAFSPDGRYIVSASFDNSIKLWDGRDGKFISTFRGHVASVYQVAWSSDCRLLVSCSKDTTLKVWDVRTRKLSVDLPGHKDEVYTVDWSVDGKRVCSGGKDKMVRLWTH

In the assay the parent is B1. Conditions: with mdn1_yeast MDN1, Q12019.
Chain of mdn1_yeast MDN1, Q12019 (Q12019 whole entry): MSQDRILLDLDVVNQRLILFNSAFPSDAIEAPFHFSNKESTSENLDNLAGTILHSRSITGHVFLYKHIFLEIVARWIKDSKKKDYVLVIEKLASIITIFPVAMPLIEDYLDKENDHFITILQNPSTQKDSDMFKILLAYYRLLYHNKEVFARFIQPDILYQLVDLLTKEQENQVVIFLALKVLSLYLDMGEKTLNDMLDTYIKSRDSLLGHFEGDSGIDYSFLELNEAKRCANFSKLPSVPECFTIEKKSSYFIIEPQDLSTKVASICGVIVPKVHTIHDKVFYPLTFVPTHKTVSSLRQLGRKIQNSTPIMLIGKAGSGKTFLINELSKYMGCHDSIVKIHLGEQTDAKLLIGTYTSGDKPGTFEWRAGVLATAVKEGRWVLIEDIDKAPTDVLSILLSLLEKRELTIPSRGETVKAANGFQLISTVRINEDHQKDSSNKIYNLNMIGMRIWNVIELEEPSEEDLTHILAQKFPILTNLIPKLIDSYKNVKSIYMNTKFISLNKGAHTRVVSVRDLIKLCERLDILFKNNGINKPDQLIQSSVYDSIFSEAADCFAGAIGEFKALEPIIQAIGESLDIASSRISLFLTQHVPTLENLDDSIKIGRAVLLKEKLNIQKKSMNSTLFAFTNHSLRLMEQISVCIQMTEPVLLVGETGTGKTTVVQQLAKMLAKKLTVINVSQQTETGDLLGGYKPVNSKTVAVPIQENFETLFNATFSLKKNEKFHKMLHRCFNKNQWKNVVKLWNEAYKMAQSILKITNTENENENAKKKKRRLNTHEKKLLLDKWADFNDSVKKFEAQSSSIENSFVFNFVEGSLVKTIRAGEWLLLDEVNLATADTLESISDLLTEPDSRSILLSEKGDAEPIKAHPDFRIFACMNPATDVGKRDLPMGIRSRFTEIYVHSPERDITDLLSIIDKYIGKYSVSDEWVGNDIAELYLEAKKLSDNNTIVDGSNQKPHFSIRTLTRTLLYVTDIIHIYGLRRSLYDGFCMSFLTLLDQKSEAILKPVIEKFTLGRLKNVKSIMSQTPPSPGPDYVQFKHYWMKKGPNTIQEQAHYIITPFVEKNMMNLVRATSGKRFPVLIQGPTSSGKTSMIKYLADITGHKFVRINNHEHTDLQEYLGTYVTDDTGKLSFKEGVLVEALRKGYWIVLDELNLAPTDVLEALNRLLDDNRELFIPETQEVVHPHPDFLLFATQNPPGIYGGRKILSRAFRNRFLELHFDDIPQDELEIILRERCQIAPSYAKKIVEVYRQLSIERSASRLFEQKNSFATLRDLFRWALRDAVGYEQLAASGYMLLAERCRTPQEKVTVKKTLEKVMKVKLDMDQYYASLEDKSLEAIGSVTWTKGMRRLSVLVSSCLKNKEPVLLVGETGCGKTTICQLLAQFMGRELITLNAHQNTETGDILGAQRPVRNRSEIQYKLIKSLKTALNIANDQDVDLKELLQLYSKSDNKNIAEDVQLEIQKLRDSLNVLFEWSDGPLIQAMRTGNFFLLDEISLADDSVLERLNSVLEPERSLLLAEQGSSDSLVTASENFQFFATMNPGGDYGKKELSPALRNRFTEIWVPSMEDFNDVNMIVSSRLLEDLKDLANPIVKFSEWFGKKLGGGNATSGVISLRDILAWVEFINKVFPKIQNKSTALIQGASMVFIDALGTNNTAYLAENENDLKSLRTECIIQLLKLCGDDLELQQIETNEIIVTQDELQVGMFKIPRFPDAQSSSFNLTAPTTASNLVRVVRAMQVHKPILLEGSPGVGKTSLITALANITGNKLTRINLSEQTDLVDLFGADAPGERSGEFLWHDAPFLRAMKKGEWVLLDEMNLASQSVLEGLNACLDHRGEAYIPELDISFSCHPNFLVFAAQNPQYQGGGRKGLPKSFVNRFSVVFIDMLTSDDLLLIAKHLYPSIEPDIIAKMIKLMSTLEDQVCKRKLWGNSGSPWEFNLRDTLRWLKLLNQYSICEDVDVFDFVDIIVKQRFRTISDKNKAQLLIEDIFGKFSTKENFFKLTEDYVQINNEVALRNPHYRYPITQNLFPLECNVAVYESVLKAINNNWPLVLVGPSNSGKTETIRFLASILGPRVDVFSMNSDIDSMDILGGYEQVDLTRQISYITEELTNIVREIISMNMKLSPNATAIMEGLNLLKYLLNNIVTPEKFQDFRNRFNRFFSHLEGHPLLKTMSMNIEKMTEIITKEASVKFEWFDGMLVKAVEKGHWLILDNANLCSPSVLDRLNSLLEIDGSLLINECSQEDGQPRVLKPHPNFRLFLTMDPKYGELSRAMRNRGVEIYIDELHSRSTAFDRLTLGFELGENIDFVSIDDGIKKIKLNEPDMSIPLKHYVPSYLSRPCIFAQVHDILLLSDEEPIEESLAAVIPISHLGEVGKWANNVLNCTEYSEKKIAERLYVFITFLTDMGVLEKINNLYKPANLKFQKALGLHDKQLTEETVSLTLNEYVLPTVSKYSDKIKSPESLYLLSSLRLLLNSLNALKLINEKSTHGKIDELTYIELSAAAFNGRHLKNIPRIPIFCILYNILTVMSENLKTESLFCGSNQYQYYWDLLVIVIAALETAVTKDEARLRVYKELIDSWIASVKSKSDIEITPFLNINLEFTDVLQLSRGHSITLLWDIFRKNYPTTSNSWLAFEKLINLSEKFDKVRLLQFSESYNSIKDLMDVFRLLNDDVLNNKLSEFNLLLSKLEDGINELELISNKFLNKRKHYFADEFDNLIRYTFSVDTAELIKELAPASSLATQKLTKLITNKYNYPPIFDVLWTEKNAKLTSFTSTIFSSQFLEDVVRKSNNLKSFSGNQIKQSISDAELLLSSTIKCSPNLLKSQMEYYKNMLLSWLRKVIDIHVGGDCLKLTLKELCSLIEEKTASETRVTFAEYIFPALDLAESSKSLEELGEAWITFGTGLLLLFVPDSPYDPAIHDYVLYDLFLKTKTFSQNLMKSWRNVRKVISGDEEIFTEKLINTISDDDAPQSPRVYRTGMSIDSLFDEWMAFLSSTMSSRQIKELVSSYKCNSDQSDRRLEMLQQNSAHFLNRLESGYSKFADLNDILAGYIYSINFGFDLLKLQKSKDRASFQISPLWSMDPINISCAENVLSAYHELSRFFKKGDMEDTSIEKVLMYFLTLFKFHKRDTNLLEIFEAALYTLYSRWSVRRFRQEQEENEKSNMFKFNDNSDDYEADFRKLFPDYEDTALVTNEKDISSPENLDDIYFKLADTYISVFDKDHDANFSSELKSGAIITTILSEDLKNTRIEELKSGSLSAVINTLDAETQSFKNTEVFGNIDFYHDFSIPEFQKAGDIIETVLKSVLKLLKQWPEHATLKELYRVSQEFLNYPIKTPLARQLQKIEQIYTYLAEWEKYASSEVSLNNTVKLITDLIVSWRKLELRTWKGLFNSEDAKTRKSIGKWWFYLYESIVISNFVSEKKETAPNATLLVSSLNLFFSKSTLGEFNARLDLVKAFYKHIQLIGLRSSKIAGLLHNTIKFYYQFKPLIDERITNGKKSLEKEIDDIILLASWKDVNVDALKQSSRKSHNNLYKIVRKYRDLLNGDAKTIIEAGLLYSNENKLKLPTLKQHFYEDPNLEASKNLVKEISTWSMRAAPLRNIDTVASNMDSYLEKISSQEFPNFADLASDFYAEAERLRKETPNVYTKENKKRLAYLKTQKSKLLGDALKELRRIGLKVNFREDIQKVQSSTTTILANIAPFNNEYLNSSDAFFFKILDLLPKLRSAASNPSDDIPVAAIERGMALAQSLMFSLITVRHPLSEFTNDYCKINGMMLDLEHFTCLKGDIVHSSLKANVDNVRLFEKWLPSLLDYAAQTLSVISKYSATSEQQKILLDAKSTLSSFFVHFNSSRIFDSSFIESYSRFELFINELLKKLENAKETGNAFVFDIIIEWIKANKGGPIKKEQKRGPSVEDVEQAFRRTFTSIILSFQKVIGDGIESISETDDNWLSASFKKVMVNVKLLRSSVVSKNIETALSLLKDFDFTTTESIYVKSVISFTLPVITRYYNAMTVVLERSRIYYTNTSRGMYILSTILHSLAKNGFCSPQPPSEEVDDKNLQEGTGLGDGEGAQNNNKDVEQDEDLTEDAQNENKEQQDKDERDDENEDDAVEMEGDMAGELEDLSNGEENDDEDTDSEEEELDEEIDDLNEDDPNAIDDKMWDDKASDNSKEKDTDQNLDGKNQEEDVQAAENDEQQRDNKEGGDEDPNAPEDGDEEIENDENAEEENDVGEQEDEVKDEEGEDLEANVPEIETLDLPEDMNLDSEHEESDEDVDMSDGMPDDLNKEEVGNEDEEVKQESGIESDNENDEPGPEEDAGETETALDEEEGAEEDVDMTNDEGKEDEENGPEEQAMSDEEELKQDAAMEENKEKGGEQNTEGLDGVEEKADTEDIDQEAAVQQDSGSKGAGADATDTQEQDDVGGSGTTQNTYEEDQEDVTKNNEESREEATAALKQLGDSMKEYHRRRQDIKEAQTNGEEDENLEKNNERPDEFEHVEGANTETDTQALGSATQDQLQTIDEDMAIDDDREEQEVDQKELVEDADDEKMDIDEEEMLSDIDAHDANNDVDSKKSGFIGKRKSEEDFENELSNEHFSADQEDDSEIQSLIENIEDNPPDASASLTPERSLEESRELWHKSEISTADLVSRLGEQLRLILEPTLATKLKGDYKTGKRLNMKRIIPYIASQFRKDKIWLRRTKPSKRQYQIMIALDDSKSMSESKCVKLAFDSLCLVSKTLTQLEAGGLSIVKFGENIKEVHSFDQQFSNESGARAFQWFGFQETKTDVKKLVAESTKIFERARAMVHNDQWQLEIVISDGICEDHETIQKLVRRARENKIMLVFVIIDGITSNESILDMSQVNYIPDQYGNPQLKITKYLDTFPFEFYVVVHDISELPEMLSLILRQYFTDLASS
For MSTLIPPPSKKQKKEAQLPREVAIIPKDLPNVSIKFQALDTGDNVGGALRVPGAISEKQLEELLNQLNGTSDDPVPYTFSCTIQGKKASDPVKTIDITDNLYSSLIKPGYNSTADQITLLYTPRAVFKVKPVTRSSSAIAGHGSTILCSAFAPHTSSRMVTGAGDNTARIWDCDTQTPMHTLKGHYNWVLCVSWSPDGEVIATGSMDNTIRLWDPKSGQCLGDALRGHSKWITSLSWEPIHLVKPGSKPRLASSSKDGTIKIWDTVSRVCQYTMSGHTNSVSCVKWGGQGLLYSGSHDRTVRVWDINSQGRCINILKSHAHWVNHLSLSTDYALRIGAFDHTGKKPSTPEEAQKKALENYEKICKKNGNSEEMMVTASDDYTMFLWNPLKSTKPIARMTGHQKLVNHVAFSPDGRYIVSASFDNSIKLWDGRDGKFISTFRGHVASVYQVAWSSDCRLLVSCSKDTTLKVWDVRTRKLSVDLPGHKDEVYTVDWSVDGKRVCSGGKDKMVRLWTH [E114A], the “effect of a mutation on the interaction” value is “decreasing interaction”.
The value for MSTLIPPPSKKQKKEAQLPREVAIIPKDLPNVSIKFQALDTGDNVGGALRVPGAISEKQLEELLNQLNGTSDDPVPYTFSCTIQGKKASDPVKTIDITDNLYSSLIKPGYNSTDDQITLLYTPRAVFKVKPVTRSSSAIAGHGSTILCSAFAPHTSSRMVTGAGDNTARIWDCDTQTPMHTLKGHYNWVLCVSWSPDGEVIATGSMDNTIRLWDPKSGQCLGDALRGHSKWITSLSWEPIHLVKPGSKPRLASSSKDGTIKIWDTVSRVCQYTMSGHTNSVSCVKWGGQGLLYSGSHDRTVRVWDINSQGRCINILKSHAHWVNHLSLSTDYALRIGAFDHTGKKPSTPEEAQKKALENYEKICKKNGNSEEMMVTASDDYTMFLWNPLKSTKPIARMTGHQKLVNHVAFSPDGRYIVSASFDNSIKLWDGRDGKFISTFRGHVASVYQVAWSSDCRLLVSCSKDTTLKVWDVRTRKLSVDLPGHKDEVYTVDWSVDGKRVCSGGKDKMVRLWTH [E114D] was “decreasing interaction”.

Source of the values: IntAct's records for PubMed 19737519.
